Laboratory results published in US20250382588A1, “CHIMERIC AAV AND USES THEREOF” (priority 2023, published 2025).
Residue numbers refer to the chain shown, from its start. Names may count otherwise.

B1: AAV8R4: AAV8R capsid mutant R490Q, SEQ ID NO: 5 (protein)
chain: MAADGYLPDWLEDNLSEGIREWWALKPGAPKPKANQQKQDDGRGLVLPGYKYLGPFNGLDKGEPVNAADAAALEHDKAYDQQLQAGDNPYLRYNHADAEFQERLQEDTSFGGNLGRAVFQAKKRVLEPLGLVEEGAKTAPGKKRPVEPSPQRSPDSSTGIGKKGQQPARKRLNFGQTGDSESVPDPQPLGEPPAAPSGVGPNTMAAGGGAPMADNNEGADGVGSSSGNWHCDSTWLGDRVITTSTRTWALPTYNNHLYKQISNGTSGGATNDNTYFGYSTPWGYFDFNRFHCHFSPRDWQRLINNNWGFRPKRLSFKLFNIQVKEVTQNEGTKTIANNLTSTIQVFTDSEYQLPYVLGSAHQGCLPPFPADVFMIPQYGYLTLNDGSQAVGRSSFYCLEYFPSQMLRTGNNFQFTYTFEDVPFHSSYAHSQSLDRLMNPLIDQYLYYLSRTQTTGGTANTQTLGFSQGGPNTMANQAKNWLPGPCYRQQQVSTTTGQNNNSNFAWTAGTKYHLNGRNSLANPGIAMATHKDDEERFFPSNGILIFGKQNAARDNADYSDVMLTSEEEIKTTNPVATEEYGIVADNLQRGNLADQDYTKTARQAATADVNSQGALPGMVWQNRDVYLQGPIWAKIPHTDGNFHPSPLMGGFGLKHPPPQILIKNTPVPADPPTTFNQSKLNSFITQYSTGQVSVEIEWELQKENSKRWNPEIQYTSNYYKSINVDFAVNTEGVYSEPRPIGTRYLTRNL
B2: AAV8R13: AAV8R capsid mutant V125I + F536Y + T495A, SEQ ID NO: 14 (protein)
chain: B1 chain with V125I, Q490R, T495A, F536Y
B3: AAV8R7: AAV8R capsid mutant A606S, SEQ ID NO: 8 (protein)
chain: B1 chain with Q490R, A606S
B4: AAV8R3: AAV8R capsid mutant Y447F, SEQ ID NO: 4 (protein)
chain: B1 chain with Y447F, Q490R
B5: AAV8R8: AAV8R capsid mutant T495A, SEQ ID NO: 9 (protein)
chain: B1 chain with Q490R, T495A
B6: AAV8R5: AAV8R capsid mutant V125I, SEQ ID NO: 6 (protein)
chain: B1 chain with V125I, Q490R
B7: AAV8R2: AAV8R capsid mutant N411S, SEQ ID NO: 3 (protein)
chain: B1 chain with N411S, Q490R
B8: AAV8R11: AAV8R capsid mutant V125I + T495A, SEQ ID NO: 12 (protein)
chain: B1 chain with V125I, Q490R, T495A
B9: AAV8R10: AAV8R capsid mutant V125I + A606S, SEQ ID NO: 11 (protein)
chain: B1 chain with V125I, Q490R, A606S
B10: AAV8R9: AAV8R capsid mutant V125I + F536Y, SEQ ID NO: 10 (protein)
chain: B1 chain with V125I, Q490R, F536Y
B11: AAV8R1: AAV8R capsid mutant V183E, SEQ ID NO: 2 (protein)
chain: B1 chain with V183E, Q490R
B12: AAV8R14: AAV8R capsid mutant V125I + A606S + T495A, SEQ ID NO: 15 (protein)
chain: B1 chain with V125I, Q490R, T495A, A606S
B13: AAV8R6: AAV8R capsid mutant F536Y, SEQ ID NO: 7 (protein)
chain: B1 chain with Q490R, F536Y

Assays:
Format in all cases: in vivo, mice
[1] = test system: MSNs in the striatum (STR); assay: Promoter activity driving EYFP reporter expression after AAV injection into the SNr: striatum; details: numbers of YFP-expressing neurons per animal
From the text: (§1) Brain profiles of two epigenetic marks for enhancers and promoters, monomethylation of histone H3 lysine 4 (H3K4me1) and acetylation of histone H3 lysine 27 (H3K27ac) were checked and approximately 2 kilobase-long sequences around the transcriptional start site (TSS) that have high levels of H3K4me1 and/or H3K27ac were identified in mouse brain. Homologous sequences at equivalent positions of the human genome were then cloned onto an AAV backbone, and the activity of the homologous sequences in directing reporter expression was tested in mice after injections of AAVs into the SNr (FIG. 3A-C, TABLE 3).
G88P2 (2259 bp) was cloned with the following primers: 5′-[…] (SEQ ID NO.: 36) and 3-[…] (SEQ ID NO.: 37). To increase the payload of AAV genome, the G88P2 promoter was shorted using restriction enzymes, and two derivatives, G88P3 and G88P7, were made which were 1395-bp and 896-bp long, respectively (FIG. 3A-3C). Comparative efficiency in labeling MSNs for the two shortened promoters was observed. For mice that received viral injections into the SNr, viruses expressing EYFP driven by G88P3 and G88P7 promoters labeled 3.7±0.66×104 and 3.95±0.73×104 MSNs per mouse, respectively, compared to 1.61±0.16×104 labeled MSNs by hSyn promoter (FIG. 4B).
(§2) Region-selective promoter identification was based on the Allen Brain Atlas in situ hybridization (ISH) data (mouse.brain-map.org/). Genes highly expressed in the striatum but not in other parts of the basal ganglia were first selected as candidates. H3K4me1 and H3K27ac are known epigenetic marks for active promoters and enhancers. Thus, we identified regions with high levels of these two chromatin modification marks in mouse brain as candidate regions based on the ENCODE annotation data on the UCSC Genome Browser (genome.ucsc.edu/). To further extend the promoters' potential application in primates, the sequences of interest were PCR-amplified from human genomic DNA. Based on the above strategies, GPR88 was selected as a candidate gene. The nucleotide sequence upstream of the start codon with high H3K4me1 and H3K27ac levels was selected as the candidate promoter sequence. G88P2 (2259 bp) was cloned with the following primers: 5′-[…]-3′ (SEQ ID NO: 36), 5′-[…]-3′ (SEQ ID NO: 58). G88P3 (1395 bp) and G88P7 (896 bp) were further shortened by subcloning.
Promoters were subcloned into a pAAV-hSyn-EYFP vector derived from pAAV-hSyn-EGFP (Addgene, 50465) to replace the hSyn promoter by using appropriate restriction enzyme combinations. To generate pAAV-G88P7-DIO-tdTomato, a DIO-tdTomato cassette was subcloned into pAAV-G88P7-EYFP to replace EYFP by restriction enzyme digestion. To generate pAAV-G88P3-HA-hM3Dq, promoter G88P3 was subcloned into pAAV-hSyn-HA-hM3Dq-IRES-mCitrine (Addgene, 50463) via the EcoRI/BamHI restriction sites to replace the hSyn promoter and IRES-mCitrine was removed afterwards by restriction enzyme digestion. To generate pAAV-G88P3-HA-hM3Dq-2A-EYFP, a 2A-EYFP fragment was subcloned into pAAV-G88P3-HA-hM3Dq after hM3Dq. […]
Images were acquired using a confocal microscope (Carl Zeiss, LSM880) and an Axiolmager.Z1 microscope with apotome (Carl Zeiss). […] Every sixth section was analyzed, and numbers of EYFP+ cells were multiplied by six to acquire the approximate total number and mean number of cells per animal. […]

[2] = test system: substantia nigra (SN); assay: Promoter activity driving EYFP reporter expression after AAV injection into the SNr: substantia nigra; details: numbers of YFP-expressing neurons per animal
From the text: as §1
as §2, with “subcloning. […]” for “subcloning.”
Images were acquired using a confocal microscope (Carl Zeiss, LSM880) and an Axiolmager.Z1 microscope with apotome (Carl Zeiss). […] Every sixth section was analyzed, and numbers of EYFP+ cells were multiplied by six to acquire the approximate total number and mean number of cells per animal. Images were processed using ImageJ (NIH, USA), and final quantifications were independently performed manually by two blinded experimenters.

[3] = test system: striatal D1 MSNs (striatonigral projection neurons); assay: Retrograde labeling of striatonigral projection neurons after AAV injection into the SNr; details: AAV8R capsid mutants; numbers of labeled neurons per animal
Procedure: To improve efficiency, multiple rounds of mutations of AAV capsids were performed on a series of different serotypes. Mutations were introduced at three sites in the AAV8 capsid protein to make AAV8R, including N385D, insertion of […] (SEQ ID NO: 31) at position 588, and TS711-712IN. Two additional mutations of V183E and N411S were incorporated into the AAV8R12 capsid protein (FIG. 1A). The labeling pattern of the AAV8R12 capsid and G88 promoter combination was determined.
First, the polypeptide fragment RGNLADODYTKTARQAATAD (SEQ ID NO.: 31) was inserted at the N587-R588 position; two other point mutations of the AAV2 Cap protein were made to develop rAAV2-retro. Similar mutations were then placed at equivalent positions for four other AAV serotypes (FIGS. 1A-IC and 25, TABLE 1), AAV1/5/6/8 (FIG. 1A). […] When administered into the SNr, 4.86±0.22 times EYFP positive MSNs in mice infected by AAV8R-hSyn-EYFP were observed as compared to those infected by rAAV2-retro-hSyn-EYFP (FIG. 2A-2C).
Baseline infectivity of rAAV2-retro was approximately 0.2±0.03×10^4 cells per striatal hemisphere (using a hSyn promoter) (TABLE 2). […] Compared to the current standard retrograde AAV, rAAV2-retro, AAV8R12 labeled 7.72±0.78-times more MSNs after nigral delivery (FIG. 2B-2C, TABLE 1). […] The AAV8R12 was generated using the AAV8R plasmid as a template.
Mice were anesthetized with sodium pentobarbital (Nembutal; 80 mg/kg, i.p.), and then placed into a stereotaxic device (KOPF). Eye cream was applied on both corneas to avoid dehydration. The skull above the targeted areas was thinned with a dental drill and carefully removed. Injections were conducted with a 10 μL syringe connected to a 33-Gauge needle (Neuros; Hamilton), using a microsyringe pump (Legato 130, KD Scientific). A total volume of 200 nL virus was injected into the SNr at a speed of 20 nL/min. The coordinates for the SNr were 3.4 mm posterior, 1.3 mm lateral, 4.8 mm ventral to the bregma.
HEK293T cells (ATCC) were co-transfected by calcium phosphate with an AAV vector plasmid, an AAV Rep-Cap plasmid (rAAV2-retro, AAV1R, AAV5R, AAV6R, AAV8R, and AAV8R1-14), and the pAdDeltaF6 helper plasmid (Addgene, 112867) harboring the adenoviral genes required for the AAV life cycle. HEK293T cells grown in 15 cm cell culture dishes were co-transfected with the mixture of three plasmids (1:1:1) at 80% confluency. 48-72 hours post-transfection, cells were collected and resuspended in a buffer containing 150 mM NaCl and 100 mM Tris-HCl (pH 8.0). Cells were lysed by repeated freeze-thaw cycles in liquid nitrogen and a 37° C. water bath. AAV particles were purified and concentrated using Millipore Amicon 100K columns (Merck Millipore, UFC910008). Encapsidated viral DNA was quantitated by qPCR (Thermo Fisher) with primers recognizing the viral WPRE and/or ITR sequences following denaturation of the AAV particles using Proteinase K. Titers were calculated as genome copies per milliliter.
Images were acquired using a confocal microscope (Carl Zeiss, LSM880) and an Axiolmager.Z1 microscope with apotome (Carl Zeiss). Brain structures were identified microscopically and in digital photos using a mouse brain atlas. To analyze the number of EYFP+ cells in the striatum, slices from rostral to caudal striatum were used. Every sixth section was analyzed, and numbers of EYFP+ cells were multiplied by six to acquire the approximate total number and mean number of cells per animal. Images were processed using ImageJ (NIH, USA), and final quantifications were independently performed manually by two blinded experimenters.

Molecule | Activity Level STR [1] | Activity Level SN [2] | Labeling Efficiency in Striatonigral Pathway [3]
G88P2: 2259-bp promoter from the gene GPR88, SEQ ID NO: 59 | ++++ (>25 k) | + (<5 k) | –
B1 | – | – | + (<5 k)
B2 | – | – | ++ (5 k-10 k)
B3 | – | – | + (<5 k)
B4 | – | – | + (<5 k)
B5 | – | – | + (<5 k)
B6 | – | – | + (<5 k)
B7 | – | – | + (<5 k)
B8 | – | – | + (<5 k)
B9 | – | – | + (<5 k)
B10 | – | – | + (<5 k)
B11 | – | – | + (<5 k)
B12 | – | – | ++ (5 k-10 k)
B13 | – | – | + (<5 k)
